Legend:
PLC/PRF/5 = experiment: 72-hour proliferation assay, PLC/PRF/5; assay type: cell-based, human; conditions: drug 2.5 μM
Description: (§1) Proliferation assay: In 100 μl complete medium, 3,000 cells were seeded in wells of a 96-well plate and left overnight to allow complete attachment. The next day (at time t=0 hours), the medium was removed and replaced with 100 μl of fresh medium in the presence/absence of Sorafenib (2.5 μM), Regorafenib (2.5 μM), rhPRG4 (12.5 to 100 μg/ml). Dimethyl sulfoxide (DMSO) and PBS+0.01% Tween-20 were used as vehicles of Sorafenib/Regorafenib, and rhPRG4, respectively. Cells in triplicate wells for each cell line were fixed at t=0 hours with 4% paraformaldehyde (PFA, pH 7.6, 10 min incubation), then stained with crystal violet (CV) and thoroughly washed to remove the excess staining. After 72 hours, the cells were fixed by adding 100 μl of 4% PFA directly to the medium (2% final PFA concentration, 20 min incubation), and processed for CV staining as previously described. Then, 100 or 200 μl of 1% sodium dodecyl-sulphate were added to the wells and the plates were left under shaking until complete CV release from stained cells. Optical density was at 595 nm wavelength measured using a plate reader.

Hep3B = experiment: 72-hour proliferation assay, Hep3B; assay type: cell-based, human; conditions: only at the highest rhPRG4 concentrations; drug 2.5 μM
Description: as §1

CD44-IgG1Fc = biological target: T1, CD44-IgG1Fc (Homo sapiens, UniProt P16070); experiment: Direct ELISA: binding of coated macromolecules to CD44-IgG1Fc
T1 construct: purchased R & D systems
T1 sequence (P16070 with tags, fused parts or gaps limits assumed): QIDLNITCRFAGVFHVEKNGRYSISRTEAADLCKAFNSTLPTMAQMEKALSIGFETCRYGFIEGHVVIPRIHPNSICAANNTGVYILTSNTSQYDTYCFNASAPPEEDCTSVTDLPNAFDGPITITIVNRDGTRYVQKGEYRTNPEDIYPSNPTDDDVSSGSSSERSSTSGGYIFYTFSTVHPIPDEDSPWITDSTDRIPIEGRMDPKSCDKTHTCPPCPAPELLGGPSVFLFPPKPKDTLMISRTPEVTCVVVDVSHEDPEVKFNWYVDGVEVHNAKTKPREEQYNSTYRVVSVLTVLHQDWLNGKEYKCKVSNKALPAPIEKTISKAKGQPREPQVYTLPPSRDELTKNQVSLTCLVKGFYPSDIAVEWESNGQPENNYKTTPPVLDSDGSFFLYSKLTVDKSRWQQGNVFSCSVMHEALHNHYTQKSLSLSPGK
Description: High-binding microtiter plates (Corning, Sigma Aldrich, USA) were coated with rhPRG4 (Mr≅240 KDa), high molecular weight HA (HMW HA; Mr≅1,500 KDa) (R & D System, USA), medium molecular weight HA (MMW HA; Mr≅′300KDa) (R & D System) and vitronectin KDa) (Sigma Aldrich) at 400 μg/mL in PBS buffer (100 μL per well) overnight at 4° C. rhPRG4 is a full-length product produced by CHO-M cells (Lubris, Framingham, Mass., USA). Following washing with PBS+0.1% Tween 20, wells were blocked with 2% bovine serum albumin (BSA; 300 μL per well) for at least 2 hours at room temperature. CD44-IgG1Fc (R & D systems) or IgG1Fc (R & D systems), each at 1 μg/mL (100 μl per well), were added to the plate and incubated for 60 min at room temperature. Following washing with PBS+0.1% tween 20, anti-IgG1Fc-HRP (Sigma Aldrich) was added at 1:10,000 dilution (100 μL per well) and incubated for 60 min at room temp. Following washing with PBS+0.1% tween 20, the assay was developed using 1-step Turbo TMB ELISA reagent (ThermoScientific, USA) and absorbance was measured at 450 nm. The data represents an average of 4 independent assays, each with triplicate wells per group.
The concentration-dependent binding of rhPRG4, HMW HA and MMW HA to CD44 was performed by coating microtiter plates with 400, 200, 100, 20, 4, 2 and 0.1 μg/mL of the macromolecules. The assay was performed as described above. The absorbance values in the IgG1Fc wells were subtracted from the absorbance values in the CD44 IgG1Fc wells and the corrected CD44 IgG1Fc absorbance values were normalized to those of the 400 μg/mL rhPRG4 group and data was expressed as percentage binding to CD44. The concentration-dependent binding of rhPRG4, HMW HA and MMW HA to recombinant CD44 is depicted in FIG. 1B. […] The data represents an average of 4 independent assays, each with triplicate wells per group.
rhPRG4 was digested using sialidase A (Prozyme, USA), O-glycosidase (New England Biolabs, USA) or a combination of sialidase A and O-glycosidase for 16 hours at 37° C. In the sialidase A digestion, 12 μL of the enzyme (1U/200 μL) was added to rhPRG4 in a total reaction volume of 180 μL and a rhPRG4 final concentration of 300 μg/mL. In the O-glycosidase digestion, 4.8 μL of the enzyme (40million units/mL) was added to rhPRG4 in a total reaction volume of 180 μL and a rhPRG4 final concentration of 300 μg/mL under non-denaturing conditions. In the sialidase-A and O-glycosidase digestion, the enzymes were used in volumes identical to the ones stated above and incubated with rhPRG4 in a total reaction volume and final rhPRG4 concentration as stated above. The effect of sialidase-A and O-glycosidase digestions on rhPRG4 apparent molecular weight was determined by SDS-PAGE using 4-12% Bis-Tris gel (NuPage, life technologies, USA). A total of 20 μL of rhPRG4 or enzyme-digested rhPRG4 was run under reducing conditions ([…] for 60 min) followed by staining using Gelcode Blue Stain (Thermo Scientific, USA). Binding of enzymatically digested rhPRG4 to CD44 was compared to undigested rhPRG4 using the direct ELISA approach described above and using an rhPRG4 coating concentration of 30 μg/mL. Data represents the average of 4 independent experiments, each with triplicate wells per group.

rhPRG4: full-length recombinant human PRG4 (lubricin) glycoprotein produced by CHO-M cells; residues 25-1404 of SEQ ID NO:1
rhPRG4-drug synergistic effect (PLC/PRF/5): did not respond at all
rhPRG4-drug synergistic effect (Hep3B): present during Hep3B proliferation, even if lower
concentration-dependent binding to CD44, affinity (CD44-IgG1Fc): comparable affinity to HMW HA
percentage CD44 binding between rhPRG4, HMW HA and MMW HA-coated wells (CD44-IgG1Fc; 0.1 μg/mL coating): no significant differences
percentage recombinant CD44 binding compared to MMW HA coated wells (CD44-IgG1Fc; 200 μg/mL coating, p<0.001): significantly higher
percentage recombinant CD44 binding compared to HMW HA or MMW HA-coated wells (CD44-IgG1Fc; 400, 100, 20, 4 and 2 μg/mL coating, p<0.001): significantly higher
450 nm absorbance in the CD44-IgG1Fc group vs the IgG1Fc group (CD44-IgG1Fc; wells coated at 400 μg/mL, CD44-IgG1Fc or IgG1Fc at 1 μg/mL): significantly higher

From patent US20220332839A1, “USE OF PRG4 TO TREAT CANCER” (Lubris LLC, priority 2019, published 2022)
